From patent US20070185028A1, “Compositions and methods for treatment of protein misfolding and protein aggregation diseases” (priority 2004, published 2007)
“And” between values parts separate entries of the source, which are not always exact repeats. Equal values may be shown once.

Experiments:
Type in all cases: biochemical
Aβ1-42 = target: T1, Aβ1-42 (Homo sapiens, UniProt P05067); experiment: Aβ1-42 fibril formation ThT fluorescence assay; conditions: for decrease in ThT fluorescence of Aβ1-42: 6 μM inhibitor, 30 μM Aβ1-42, 37° C., 48 hrs; for inhibition of Aβ fibrillation: peptide to substrate concentration of 1:5
T1 construct: Aβ1-42 (American Peptide); purchased American Peptide
Procedure: The effect of five synthesized αB crystallin peptides STSLSPFYLRPPSFLRAP (ST), DRFSVNLDVKHFS (DR), HGKHEERQDE (HG), LTITSSLSSDGV (LT), and ERTIPITRE (ER) on Aβ1-42 fibrillation was measured using the ThT fluorescence assay (FIG. 1). The formation and inhibition of Aβ1-42 fibrils was qualitatively verified by fluorescence and bright-field microscopy. The concentration and stoichometry of the peptides was varied relative to Aβ1-42 to establish a concentration curve. In addition, the effect of two known inhibitors of Aβ1-42 fibrillation (APS and NAP) and a control neuropeptide (AT1) with no fibril inhibition activity was measured and compared to the effect of the αB crystallin peptides on Aβ1-42 fibrillation. The ThT fluorescence of 30 μM Aβ1-42 alone incubated at 37° C. for 48 hrs increased from ˜350,000 to ˜450,000 RFU. […] In contrast, 6 μM DR, LT, and […] had no effect on Aβ1-42 fibril formation. […] Increasing the concentration of the DR peptide to 30 μM decreased the ThT fluorescence by approximately 50%. […] However, when the concentrations of the LT and ER peptides were increased to 150 μM, a 60-100% decrease in ThT fluorescence was measured. […] The negative control peptide AT1 had no effect on Aβ1-42 fibril formation even at a concentration as high as 300 μM.
The Thioflavin T (ThT) fluorescence of Aβ1-42 in the presence of varying concentrations of αB crystallin peptides and controls was measured. […] Addition of 6 μM DR, LT, and ER had no effect on the ThT fluorescence of Aβ1-42. When the concentration of the peptides was increased to 30 μM (1:1::peptide:Aβ1-42), the αB crystallin peptides ST, DR, HG decreased the ThT fluorescence by 50-100%. At the same concentrations, APS and NAP decreased the ThT fluorescence by 30-100%. When the concentration of the peptides was increased further to 150 μM ([…]), four of the five αB crystallin peptides DR, HG, LT, and ER decreased the ThT fluorescence by 58-100%. At the same concentrations, APS and NAP decreased the fluorescence by 28-100%. […] The formation and inhibition of Aβ fibrils was verified microscopically.
Thioflavin T (ThT) Assays. The effect of the five αB crystallin peptides (ST, DR, HG, LT, and ER) on Aβ1-42 fibril formation was measured using the ThT fluorescence assay (44-47) and compared with two known inhibitors of Aβ1-42 fibril formation (Tramiprosate and NAP)(34, 36) and a negative control neuropeptide Angiotensin 1 (AT1). Thioflavin T is a fluorescent dye that has a high affinity for amyloid fibrils and becomes fluorescent (excitation λ=450 nm, emission λ=486 nm) when bound to fibrils. For the Aβ1-42 assays, peptides and APS were dissolved to 2 mM in 0.25% DMSO and diluted accordingly, while Aβ1-42 was dissolved in 20 mM Tris-Cl, pH 7.40, and 100 mM NaCl. For the 5:1::inhibitor:Aβ1-42 assay, 10 μL of 450 μM peptide or APS was mixed with 10 μL of 90 μM Aβ1-42), 7 μL 20 mM Tris-Cl, 100 mM NaCl, pH 7.4 and 3 μL of 1 mM ThT. For the 1:1::inhibitor:Aβ1-42 assay, 10 μL of 90 μM peptide or APS was mixed with 10 μL of 90 μM Aβ(1-42), 7 μL 20 mM Tris-Cl, 100 mM NaCl, pH 7.4 and 3 μL of 1 mM ThT. For the 1:5::inhibitor:Aβ1-42 assay, 10 μL of 18 μM peptide or APS was mixed with 10 μL of 90 μM Aβ(1-42), 7 μL 20 mM Tris-Cl, 100 mM NaCl, pH 7.4 and 3 μL of 1 mM ThT. ThT fluorescence in relative fluorescence units (RFU) was measured using a Perkin Elmer Victor^3 V plate reader. Assays were performed in 384-well fluorescence plates in duplicates or triplicates. Samples were incubated at 37° C. for a total of 48 hours. ThT fluorescence was measured at 0, 24, and 48 hours. The effect of the peptides and APS was calculated as percentage fibril formation relative to Aβ1-42 alone (100%) at the end of 48 hours.

transthyretin (TTR) = target: T2, transthyretin (TTR) (Homo sapiens, UniProt P02766); experiment: Transthyretin fibrillation ThT assay; conditions: for decrease in ThT fluorescence of TTR: 3.2 μM, 16 μM TTR, 37° C.
T2 construct: purchased Sigma-Aldrich
Procedure: The effect of the five αB crystallin peptides ST, DR, HG, LT, and ER on TTR fibrillation was measured using the ThT fluorescence assay (FIG. 26). The formation and inhibition of TTR fibrils was qualitatively verified by fluorescence and bright-field microscopy. The concentration of the peptides was varied relative to TTR to establish a concentration curve. In addition, the effect of a control neuropeptide (AT1) with no TTR fibril inhibition activity was measured and compared to the effect of the αB crystallin peptides on TTR fibril formation. The ThT fluorescence of 16 μM TTR alone incubated at 37° C. for 4 hrs, increased from ˜15,000 to ˜45,000 RFU. Addition of 3.2 μM αB crystallin peptides, ST, DR, LT, and HG decreased the ThT fluorescence of TTR by 15-70%. In contrast, 3.2 μM ER had no effect on TTR fibril formation. Increasing the concentration of the ER peptide to 16 μM decreased the ThT fluorescence of TTR by 60%. The negative control peptide AT1 had no effect on TTR fibrillation even at a concentration as high as 160 μM. All five αB crystallin peptides inhibited TTR fibrillation at sub-stoichometric and stoichometric concentrations (3.2 μM and 16 μM).
The Thioflavin T (ThT) fluorescence of TTR in the presence of varying concentrations of αB crystallin peptides and controls was measured. […] When the concentration of the peptides was increased to 16 μM (1:1::peptide:TTR), the αB crystallin peptides ST, DR, HG, LT and ER decreased the ThT fluorescence by 8-72%. When the concentration of the peptides was increased further to 80 μM ([…]), all of the five αB crystallin peptides ST, DR, HG, LT, and ER decreased the ThT fluorescence by 40-70%. […] The formation and inhibition of TTR fibrils was verified microscopically.
Transthyretin fibrillation ThT assays were performed as described previously. Hurshman et al., Biochemistry 43:7365-81, 2004; O'Nuallain and Wetzel, Proc Natl Acad Sci USA 99:1485-90, 2002. Peptides were dissolved to 2 mM in 0.25% DMSO and diluted accordingly, while TTR was dissolved in 200 mM KCl, 2 mM EDTA, 5 mM PBS, 200 mM sodium acetate, pH 4.4. For the 5::peptide:TTR assay, 10 μL of 160 μM peptide was mixed with 10 μL of 32 μM TTR, and 1 μL of 1 mM ThT. For the 1:1::peptide:TTR assay, 10 μL of 32 μM peptide was mixed with 10 μL of 32 μM TTR and 1 μL of 1 mM ThT. For the 1:5::peptide:TTR assay, 10 μL of 6.4 μM peptide was mixed with 10 μL of 32 μM TTR and 1 μL of 1 mM ThT. ThT fluorescence was measured using a Perkin Elmer Victor^3 V plate reader. Assays were performed in 384-well fluorescence plates in duplicates or triplicates. Samples were incubated at 37° C. ThT fluorescence was measured continuously for 150 minutes. The effect of the peptides and APS was calculated as percentage fibril formation relative to TTR alone (100%) at the end of 150 minutes.

γD crystallin = target: T3, γD crystallin (Homo sapiens, UniProt P07320); experiment: γD crystallin Thioflavin T fluorescence (fibrillization); conditions: 1:1 γD crystallin:peptide
T3 sequence (P07320 2-174): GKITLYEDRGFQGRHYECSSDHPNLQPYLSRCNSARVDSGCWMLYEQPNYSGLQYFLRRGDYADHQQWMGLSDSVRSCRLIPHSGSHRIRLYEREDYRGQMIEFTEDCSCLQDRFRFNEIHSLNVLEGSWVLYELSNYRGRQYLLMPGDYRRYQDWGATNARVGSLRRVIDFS
Procedure: γD crystallin Thioflaviin T fluorescence. γD crystallin fibrils were formed in a similar way to that of γ crystalline. Meehan et al., J Biol Chem 279: 3413-3419, 2004. Peptides were dissolved to 9.1 mM in TFE and diluted to 0.91 mM stock solutions in 10% TFE, pH 2.0. 3.5 mg of Thioflavin T was dissolved in 100 μl of 50 mM Glycine pH 8.5. A stock solution of 1 mg/ml (0.22 mM) Aβ was prepared. 20 μl Aβ, 5 μl chaperone, 2 μl Thioflavin T was mixed with 73 μl 10% TFE, pH 2.0. Fluorescence was read using a Beckman Coultier DTX 880 multimode detector. Samples were heated at 50° C. for 72 hours and fluorescence was read again.
The fibrillization of γD crystallin was measured as fluorescence of the fluorescent dye Thioflavin T from solutions containing 1:1 monomeric molar ratio of γD crystallin:peptide. In the absence of fibrils Thioflavin T had little or no fluorescence. The fluorescence of the Thioflavin T bound to γD crystallin fibrils in the absence of any other molecule after 72 hrs was set to 100%. […] Fibril formation=ΔfluorescenceγD crystallin (with chaperone)*100/ΔfluorescenceγD crystallin (without chaperone).

Aβ = Aβ (Homo sapiens, UniProt P05067); experiment: Aβ Thioflavin T fluorescence (fibrillization, 50° C., 72 hours); conditions: Thioflavin T; 1:10 Aβ:peptide; 50° C., 72 hours
Procedure: Aβ Thioflaviin T fluorescence. Aβ fibrils were grown in the presence and absence of αB crystallin and peptides in conditions similar to that previously described for the presence of αB crystallin. Bakthisaran et al., Biochem J, 2005. Peptides were dissolved to 9.1 mM in trifluorethanol (TFE) and diluted to 0.91 mM stock solutions in 50 mM PBS, 100 mM NaCl, pH 7.4. 3.5 mg of Thioflavin T was dissolved in 100 μl of 50 mM Glycine pH 8.5. A stock solution of 1 mg/ml (0.22 mM) Aβ was prepared. 20 μl Aβ, 50 μl chaperone, 2 μl Thioflavin T was mixed with 28 μl 50 mM PBS, 100 mM NaCl, pH 7.4. Fluorescence was read using a Beckman Coultier DTX 880 multimode detector. Samples were heated at 50° C. for 72 hours and fluorescence was read again.
The fibrillization of Aβ was measured as fluorescence of the fluorescent dye Thioflavin T from solutions containing 1:10 monomeric molar ratio of Aβ:peptide. In the absence of Aβ fibrils, Thioflavin T had little or no fluorescence. The fluorescence of the Thioflavin T bound to Aβ fibrils in the absence of any other molecule after 72 hrs was set to 100%. […] Fibril formation=ΔfluorescenceAβ (with chaperone)*100/ΔfluorescenceAβ (without chaperone).

Row | Molecule | decrease in ThT fluorescence of Aβ1-42 (Aβ1-42) | inhibition of Aβ fibrillation (Aβ1-42) | decrease in ThT fluorescence of TTR (transthyretin (TTR)) | inhibition of TTR fibrils, HG derived peptides (transthyretin (TTR); 1:1 ratio) | effect on the fibrillization of γD crystallin (ranking) (γD crystallin; 72 hrs) | Δfluorescence (γD crystallin) (γD crystallin; Thioflavin T, 50° C., 72 hours) | Δfluorescence (Aβ) (Aβ)
1 | NAPVSIPQ [reference compound] | ~40% and 38% | ~38% | did not have any effect |  |  |  | 
2 | HEER |  |  |  | ~100% |  |  | 
3 | NCCCS(=O)(=O)O [APS, 3-aminopropanesulfonic acid, reference compound] | ~40% and 38% | ~38% | did not have any effect |  |  |  | 
4 | αB crystallin: wild type recombinant human αB crystallin, small heat shock protein and molecular chaperone |  |  |  |  | weakest effect | 1,079,141,056 | 318,471,040
